Experimental data: article PMC6624267

B1: CARD9^2−97 (CARD9 CARD alone), wild type [human] / itself (parent)
chain: SDYENDDECWSVLEGFRVTLTSVIDPSRITPYLRQCKVLNPDDEEQVLSDPNLVIRKRKVGVLLDILQRTGHKGYVAFLESLELYYPQLYKKVTGK

Variants of: B1
Experiment: polymerization assay (absorbance at 350 nm)
Conditions: with itself; 1 mM D43R/K58D + EDTA (parent trace is 150 uM WT + EDTA); 50 mM Tris, 150 mM NaCl, 0.5 mM TCEP, pH 7.0; 25 °C; read off a plot

Question: With chain 1 D42R K57D as the variant, how does the response read?
Answer: The response was 1.7 A350.
